Non-standard residues stand in square brackets, D forms with d. Residues, ends and D or L forms follow the SMILES beside them. Tle = CC(C)(C)[C@H](N)C(=O)O
How the values were obtained:
Assay type in all cases: biochemical
DP4 variant N710Q [1] = biological target: T1, DP4 variant N710Q (Homo sapiens, UniProt P27487, N710Q); test: IC50 determination with substrate Gly-Pro-AMC; settings: bounds given in mM, 100 mM HEPES-buffer (pH 7.6), T = 30 °C, substrate Gly-Pro-AMC in the range of Km
T1 construct: His(6)-37-766 hDP4 containing fractions were concentrated to 1 ml; made in house; host or cells: Pichia pastoris X-33 (vector pPICZα C, secreted)
Procedure: (§1) The reactions were performed in 100 mM HEPES buffer, pH 7.6 at 30°C in a total assay volume of 270 μl by using 96-well plates. […] Fluorescence was detected with a […]luor Plus (TECAN) at an excitation wavelength of 380 nm and an emission wavelength of 465 nm.

DP4 variant R125K [2] = biological target: T2, DP4 variant R125K (Homo sapiens, UniProt P27487, R125K); test: IC50 determination with substrate Gly-Pro-AMC; settings: 100 mM HEPES-buffer (pH 7.6), T = 30 °C, substrate Gly-Pro-AMC in the range of Km
T2 construct: His(6)-37-766 hDP4 containing fractions were concentrated to 1 ml; made in house; host or cells: Pichia pastoris X-33 (vector pPICZα C, secreted)
Procedure: as §1

DP4 variant N710A [3] = biological target: T3, DP4 variant N710A (Homo sapiens, UniProt P27487, N710A); test: IC50 determination with substrate Gly-Pro-AMC; settings: 100 mM HEPES-buffer (pH 7.6), T = 30 °C, substrate Gly-Pro-AMC in the range of Km
T3 construct: His(6)-37-766 hDP4 containing fractions were concentrated to 1 ml; made in house; host or cells: Pichia pastoris X-33 (vector pPICZα C, secreted)
Procedure: as §1

wild type DP4 [4] = biological target: T4, wild type DP4 (Homo sapiens, UniProt P27487); test: IC50 determination with substrate Gly-Pro-AMC; settings: 100 mM HEPES-buffer (pH 7.6), T = 30 °C, substrate Gly-Pro-AMC in the range of Km
T4 construct: His(6)-37-766 hDP4 containing fractions were concentrated to 1 ml; made in house; host or cells: Pichia pastoris X-33 (vector pPICZα C, secreted)
Procedure: as §1

DP4 variant N710D [5] = biological target: T5, DP4 variant N710D (Homo sapiens, UniProt P27487, N710D); test: IC50 determination with substrate Gly-Pro-AMC; settings: 100 mM HEPES-buffer (pH 7.6), T = 30 °C, substrate Gly-Pro-AMC in the range of Km
T5 construct: His(6)-37-766 hDP4 containing fractions were concentrated to 1 ml; made in house; host or cells: Pichia pastoris X-33 (vector pPICZα C, secreted)
Procedure: as §1

DP4 variant R125A [6] = biological target: T6, DP4 variant R125A (Homo sapiens, UniProt P27487, R125A); test: IC50 determination with substrate Gly-Pro-AMC; settings: 100 mM HEPES-buffer (pH 7.6), T = 30 °C, substrate Gly-Pro-AMC in the range of Km
T6 construct: His(6)-37-766 hDP4 containing fractions were concentrated to 1 ml; made in house; host or cells: Pichia pastoris X-33 (vector pPICZα C, secreted)
Procedure: as §1

DP4 variant E205A [7] = biological target: T7, DP4 variant E205A (Homo sapiens, UniProt P27487, E205A); test: IC50 determination with substrate Gly-Pro-AMC; settings: 100 mM HEPES-buffer (pH 7.6), T = 30 °C, substrate Gly-Pro-AMC in the range of Km
T7 construct: His(6)-37-766 hDP4 containing fractions were concentrated to 1 ml as described above; His6 (N); made in house; host or cells: Pichia pastoris X-33, vector pPICZα C (secreted)
Procedure: as §1

DP4 variant E206A [8] = biological target: T8, DP4 variant E206A (Homo sapiens, UniProt P27487, E206A); test: IC50 determination with substrate Gly-Pro-AMC; settings: bounds given in mM, 100 mM HEPES-buffer (pH 7.6), T = 30 °C, substrate Gly-Pro-AMC in the range of Km
T8 construct: His(6)-37-766 hDP4 containing fractions were concentrated to 1 ml as described above; His6 (N); made in house; host or cells: Pichia pastoris X-33, vector pPICZα C (secreted)
Procedure: as §1

DP4 variant N710Q [9] = biological target: T1, DP4 variant N710Q; test: Km and kcat determination by LC/MS-MS assay; settings: hydrolysis of peptide hormone, 10 mM Tris-buffer (pH 7.6), T = 30 °C
Procedure: (§2) Therefore, DP4 was incubated with different substrate concentrations in 10 mM Tris-buffer pH 7.6 at 30°C. Enzyme concentrations and incubation times were chosen to obtain a linear product formation. After selected time points, samples were taken and the reaction stopped by addition of 19 volumes 0,1% HCOOH. Cleavage products were quantified in the respective samples by LC/MS-MS assay.

DP4 variant R125K [10] = biological target: T2, DP4 variant R125K; test: Km and kcat determination by LC/MS-MS assay; settings: hydrolysis of peptide hormone, 10 mM Tris-buffer (pH 7.6), T = 30 °C
Procedure: as §2

DP4 variant N710A [11] = biological target: T3, DP4 variant N710A; test: Km and kcat determination by LC/MS-MS assay; settings: hydrolysis of peptide hormone, 10 mM Tris-buffer (pH 7.6), T = 30 °C
Procedure: as §2

wild type DP4 [12] = biological target: T4, wild type DP4; test: Km and kcat determination by LC/MS-MS assay; settings: hydrolysis of peptide hormone, 10 mM Tris-buffer (pH 7.6), T = 30 °C
Procedure: as §2

DP4 variant N710D [13] = biological target: T5, DP4 variant N710D; test: Km and kcat determination by LC/MS-MS assay; settings: hydrolysis of peptide hormone, 10 mM Tris-buffer (pH 7.6), T = 30 °C
Procedure: as §2

DP4 variant R125A [14] = biological target: T6, DP4 variant R125A; test: Km and kcat determination by LC/MS-MS assay; settings: hydrolysis of peptide hormone, 10 mM Tris-buffer (pH 7.6), T = 30 °C
Procedure: as §2

DP4 variant E205A [15] = biological target: T7, DP4 variant E205A; test: Km and kcat determination by LC/MS-MS assay; settings: hydrolysis of peptide hormone, 10 mM Tris-buffer (pH 7.6), T = 30 °C
Procedure: as §2

DP4 variant E206A [16] = biological target: T8, DP4 variant E206A; test: Km and kcat determination by LC/MS-MS assay; settings: hydrolysis of peptide hormone, 10 mM Tris-buffer (pH 7.6), T = 30 °C
Procedure: as §2

DP4 variant R125K [17] = biological target: T2, DP4 variant R125K; test: Cleavage of peptide hormones by MALDI-TOF mass spectrometry; parameters: key: +++: hydrolysis is comparable with the data obtained from the wild type enzyme; -: hydrolysis below 0,01% of the wild type enzyme; settings: T = 37 °C, 100 mM Tris-HCl, pH 7.6, substrate concentration 25 μM
Procedure: (§3) Enzyme concentration 5 x 10^−9 M, substrate concentration 25 μM, reaction time 1–3 hours, depending on the respective hydrolysis rate. Reactions were stopped by addition of 1 volume DHAP/DAHC-matrix, dissolved in 50% (v/v) acetonitrile, after certain time points. The matrix-sample mixture was placed in a vacuum, which caused the proteins to crystallize together with the matrix. Using the mass spectrometer "LD-TOF System G2025" from Hewlett Packard, the relative amount of substrate and respective product peaks in the samples could be determined. Relative hydrolysis rates were depicted by plotting relative substrate concentration against time.

wild type DP4 [18] = biological target: T4, wild type DP4; test: as above; parameters: key: +++: hydrolysis is comparable with the data obtained from the wild type enzyme; -: hydrolysis below 0,01% of the wild type enzyme; settings: T = 37 °C, 100 mM Tris-HCl, pH 7.6, substrate concentration 25 μM
Procedure: as §3

DP4 variant N710Q [19] = biological target: T1, DP4 variant N710Q; test: as above; settings: T = 37 °C, 100 mM Tris-HCl, pH 7.6, substrate concentration 25 μM
Procedure: as §3

DP4 variant N710A [20] = biological target: T3, DP4 variant N710A; test: as above; settings: T = 37 °C, 100 mM Tris-HCl, pH 7.6, substrate concentration 25 μM
Procedure: as §3

DP4 variant N710D [21] = biological target: T5, DP4 variant N710D; test: as above; settings: T = 37 °C, 100 mM Tris-HCl, pH 7.6, substrate concentration 25 μM
Procedure: as §3

DP4 variant R125A [22] = biological target: T6, DP4 variant R125A; test: as above; settings: T = 37 °C, 100 mM Tris-HCl, pH 7.6, substrate concentration 25 μM
Procedure: as §3

DP4 variant E205A [23] = biological target: T7, DP4 variant E205A; test: as above; settings: T = 37 °C, 100 mM Tris-HCl, pH 7.6, substrate concentration 25 μM
Procedure: as §3

DP4 variant E206A [24] = biological target: T8, DP4 variant E206A; test: as above; settings: T = 37 °C, 100 mM Tris-HCl, pH 7.6, substrate concentration 25 μM
Procedure: as §3

T6 sequence (P27487 37-766 R125A): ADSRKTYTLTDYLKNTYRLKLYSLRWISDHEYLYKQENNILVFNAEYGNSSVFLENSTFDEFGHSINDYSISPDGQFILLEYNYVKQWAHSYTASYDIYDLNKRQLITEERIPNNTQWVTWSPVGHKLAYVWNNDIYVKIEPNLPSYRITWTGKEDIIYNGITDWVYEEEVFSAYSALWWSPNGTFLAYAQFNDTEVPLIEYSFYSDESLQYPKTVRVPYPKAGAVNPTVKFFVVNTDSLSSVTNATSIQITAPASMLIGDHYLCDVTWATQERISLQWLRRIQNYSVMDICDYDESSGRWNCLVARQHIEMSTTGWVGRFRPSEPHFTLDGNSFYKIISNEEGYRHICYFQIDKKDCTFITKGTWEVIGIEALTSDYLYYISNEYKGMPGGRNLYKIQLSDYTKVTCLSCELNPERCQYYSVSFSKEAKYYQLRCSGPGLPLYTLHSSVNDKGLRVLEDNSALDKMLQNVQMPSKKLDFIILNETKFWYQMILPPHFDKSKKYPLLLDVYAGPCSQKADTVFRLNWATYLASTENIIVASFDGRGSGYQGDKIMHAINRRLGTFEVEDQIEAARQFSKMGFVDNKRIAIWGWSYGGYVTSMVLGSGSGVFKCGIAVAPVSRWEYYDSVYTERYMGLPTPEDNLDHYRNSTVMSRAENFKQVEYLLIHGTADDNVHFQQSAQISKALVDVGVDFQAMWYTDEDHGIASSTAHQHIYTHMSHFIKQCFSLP
T3 sequence (P27487 37-766 N710A): as the sequence (P27487 37-766 R125A) above, with A89R, N674A counted along it
T7 sequence (P27487 37-766 E205A): as the sequence (P27487 37-766 R125A) above, with A89R, E169A counted along it
T4 sequence (P27487 37-766): as the sequence (P27487 37-766 R125A) above, with A89R counted along it
T2 sequence (P27487 37-766 R125K): as the sequence (P27487 37-766 R125A) above, with A89K counted along it
T5 sequence (P27487 37-766 N710D): as the sequence (P27487 37-766 R125A) above, with A89R, N674D counted along it
T8 sequence (P27487 37-766 E206A): as the sequence (P27487 37-766 R125A) above, with A89R, E170A counted along it
T1 sequence (P27487 37-766 N710Q): as the sequence (P27487 37-766 R125A) above, with A89R, N674Q counted along it

CC[C@H](C)[C@H](NC(=O)[C@@H]1CCCN1C(=O)[C@@H](N)C(C)(C)C)C(N)=O [t-Bu-Gly-Pro-Ile-NH2, t-Butyl-Gly-Pro-Ile-NH2] (H-[Tle]-Pro-Ile-NH2)
IC50 (DP4 variant N710Q [1]): > 10 mM | IC50 (DP4 variant R125K [2]): 53 µM | IC50 (DP4 variant N710A [3]): 140 µM | IC50 (wild type DP4 [4]): 6.7 µM | IC50 (DP4 variant N710D [5]): 400 µM | IC50 (DP4 variant R125A [6]): 80 µM | IC50 (DP4 variant E205A [7]): 1300 µM | IC50 (DP4 variant E206A [8]): > 10 mM

NP Y: physiological DP4 substrate, peptide hormone, proline in P1 position (H2N-Y-P-S…)
Km (DP4 variant N710Q [9]): 510 µM | kcat (DP4 variant N710Q [9]): 2.0 ± 0.32 s⁻¹ | Km (DP4 variant R125K [10]): 52 µM | kcat (DP4 variant R125K [10]): 32 ± 0.5 s⁻¹ | Km (DP4 variant N710A [11]): 83 µM | kcat (DP4 variant N710A [11]): 1.8 ± 0.08 s⁻¹ | Km (wild type DP4 [12]): 13 µM | kcat (wild type DP4 [12]): 37 ± 2.7 s⁻¹ | Km (DP4 variant N710D [13]): 190 µM | kcat (DP4 variant N710D [13]): 12 ± 0.9 s⁻¹ | Km (DP4 variant R125A [14]): 150 µM | kcat (DP4 variant R125A [14]): 23 ± 0.9 s⁻¹ | Km (DP4 variant E205A [15]): 180 µM | kcat (DP4 variant E205A [15]): 11 ± 0.7 s⁻¹ | Km (DP4 variant E206A [16]): 98 µM | Hydrolysis of peptide hormone in comparison to the DP4 wild type enzyme (DP4 variant R125K [17]): +++ | Hydrolysis of peptide hormone in comparison to the DP4 wild type enzyme (wild type DP4 [18]): +++

PACAP38: physiological DP4 substrate, peptide hormone, serine in P1 position (H2N-H-S-Q…)
Hydrolysis of peptide hormone in comparison to the DP4 wild type enzyme (DP4 variant R125K [17]): - (hydrolysis below 0,01% of the wild type enzyme) | Hydrolysis of peptide hormone in comparison to the DP4 wild type enzyme (wild type DP4 [18]): +++ | Hydrolysis of peptide hormone in comparison to the DP4 wild type enzyme (DP4 variant N710Q [19]): - (hydrolysis below 0,01% of the wild type enzyme) | Hydrolysis of peptide hormone in comparison to the DP4 wild type enzyme (DP4 variant N710A [20]): - (hydrolysis below 0,01% of the wild type enzyme) | Hydrolysis of peptide hormone in comparison to the DP4 wild type enzyme (DP4 variant N710D [21]): - (hydrolysis below 0,01% of the wild type enzyme) | Hydrolysis of peptide hormone in comparison to the DP4 wild type enzyme (DP4 variant R125A [22]): - (hydrolysis below 0,01% of the wild type enzyme) | Hydrolysis of peptide hormone in comparison to the DP4 wild type enzyme (DP4 variant E205A [23]): - (hydrolysis below 0,01% of the wild type enzyme) | Hydrolysis of peptide hormone in comparison to the DP4 wild type enzyme (DP4 variant E206A [24]): - (hydrolysis below 0,01% of the wild type enzyme)

glucose-dependent insulinotropic peptide [GIP]
kcat (DP4 variant R125K [10]): 0.88 ± 0.08 s⁻¹ | kcat (wild type DP4 [12]): 3.9 ± 0.2 s⁻¹ | kcat (DP4 variant R125A [14]): 0.16 ± 0.08 s⁻¹ | Hydrolysis of peptide hormone in comparison to the DP4 wild type enzyme (wild type DP4 [18]): +++ | Hydrolysis of peptide hormone in comparison to the DP4 wild type enzyme (DP4 variant N710Q [19]): - (hydrolysis below 0,01% of the wild type enzyme) | Hydrolysis of peptide hormone in comparison to the DP4 wild type enzyme (DP4 variant N710A [20]): - (hydrolysis below 0,01% of the wild type enzyme) | Hydrolysis of peptide hormone in comparison to the DP4 wild type enzyme (DP4 variant N710D [21]): - (hydrolysis below 0,01% of the wild type enzyme) | Hydrolysis of peptide hormone in comparison to the DP4 wild type enzyme (DP4 variant E205A [23]): - (hydrolysis below 0,01% of the wild type enzyme) | Hydrolysis of peptide hormone in comparison to the DP4 wild type enzyme (DP4 variant E206A [24]): - (hydrolysis below 0,01% of the wild type enzyme)
